These results are taken from publication PMC8927147, “Global profiling of regulatory elements in the histone benzoylation pathway” (Nature Communications, 2022).

Ends that are not written are not given here. * marks the point of attachment. Bz = O=C(c1ccccc1)*

Assay in all cases: crystal structure; protein (15 mg/ml) mixed with peptide at 1:5 molar ratio; sitting-drop vapor diffusion at 25 °C
Details in all cases: both partners purified

For assay [1], the target named is T1, Taf14_(YEATS) (S. cerevisiae, UniProt P35189 2-137).
T1 construct: Taf14, S. cerevisiae, YEATS domain, residues 2-137; also called Taf14_(2-137); YEATS domain of Taf14; source: E. coli Rosetta, purified (Ni-NTA, on-bead ULP1 digestion, SEC); not shown: 6*His-Sumo, N-terminal, cleaved
T1 sequence (looked up): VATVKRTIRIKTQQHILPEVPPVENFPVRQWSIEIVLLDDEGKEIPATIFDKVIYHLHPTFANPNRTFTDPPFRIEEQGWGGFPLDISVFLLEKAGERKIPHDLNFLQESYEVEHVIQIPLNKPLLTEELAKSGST

In assay [2] the target is T2, Sth1BD (S. cerevisiae, UniProt P32597 1248-1359).
T2 construct: also called Bromodomain from Sth1; source: E. coli Rosetta, purified (Ni-NTA, on-bead ULP1 digestion, SEC); not shown: 6*His-Sumo, N-terminal, cleaved
T2 sequence (looked up): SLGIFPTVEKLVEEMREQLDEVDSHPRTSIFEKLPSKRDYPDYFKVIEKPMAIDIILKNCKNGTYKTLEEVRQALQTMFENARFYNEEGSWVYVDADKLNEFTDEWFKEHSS

Assay [3] has as its target T3, Sas5_(YEATS) (S. cerevisiae, UniProt Q99314 2-139).
T3 construct: also called YEATS domain of Sas5; source: E. coli Rosetta, purified (Ni-NTA, on-bead ULP1 digestion, SEC); not shown: 6*His-Sumo, N-terminal, cleaved
T3 sequence (looked up): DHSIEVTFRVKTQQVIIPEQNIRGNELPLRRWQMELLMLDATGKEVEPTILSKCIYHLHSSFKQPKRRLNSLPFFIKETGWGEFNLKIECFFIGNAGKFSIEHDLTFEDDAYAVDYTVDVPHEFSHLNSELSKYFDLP

The target in assay [4] is T4, Hst2_(8-294) (S. cerevisiae, UniProt P53686 8-294).
T4 construct: Construct of the crystal structures; source: E. coli Rosetta, purified (Ni-NTA, on-bead ULP1 digestion, SEC); not shown: 6*His-Sumo, N-terminal, cleaved
T4 sequence (P53686 8-294): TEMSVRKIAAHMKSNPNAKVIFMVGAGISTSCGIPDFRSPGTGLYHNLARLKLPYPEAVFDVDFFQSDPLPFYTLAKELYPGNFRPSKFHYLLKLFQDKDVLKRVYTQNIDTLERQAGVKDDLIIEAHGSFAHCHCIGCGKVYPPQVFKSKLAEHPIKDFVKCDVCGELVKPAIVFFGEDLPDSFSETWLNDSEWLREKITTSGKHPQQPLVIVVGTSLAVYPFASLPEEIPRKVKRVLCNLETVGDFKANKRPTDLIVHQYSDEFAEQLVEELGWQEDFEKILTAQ

B1: H3_(5-13)K9bz (peptide)
peptide: Ac-QTARK(Bz)STGG
notes: histone H3, residues 5-13; Peptide crystallised with Taf14_(2-137); also called H3K9bz (Ac-QTARKbzSTGG); source: synthetic peptide
Regarding B1, the binding result in assay [1] is given as “binds”.

B2: H3K14bz(TARKSTGGKbzAPRKQLASY) (peptide)
peptide: TARKSTGGK(Bz)APRKQLASY
notes: histone H3, residues 6-22; C-terminal tyrosine (Y23) that is not in H3 at this position; also called H3K14bz peptide of the Sth1BD crystal; source: synthetic peptide
As for B2, the binding result in assay [2] is given as “binds”.

B3: H3_(18-37)K27bz (peptide)
peptide: KQLASKAARK(Bz)SAPSTGGVKY
notes: histone H3, residues K18 to K36; extra tyrosine residue (Y37) at the C-terminus designed for concentration determination by UV spectrometry; source: synthetic peptide
B3: in assay [3], the binding result is recorded as “binds”.

B4: H3_(5-14)K9bz (peptide)
peptide: QTARK(Bz)STGGK
notes: histone H3, residues 5-14; also called benzoylated H3 peptide; source: synthetic peptide
B4: in assay [4], the binding result is “binds”.
